According to patent US20190225692A1 (JUNO THERAPEUTICS, published 2019):

B1: TCR 43 (codon optimized, cysteine modified version) (TCR, V domains shown)
V domain 1: QKEVEQNSGPLSVPEGAIASLNCTYSDRGSQSFFWYRQYSGKSPELIMFIYSNGDKEDGRFTAQLNKASQYVSLLIRDSQPSDSATYLCAVNVPTSGTYKYIFGTGTRLKVLA
V domain 2: EPEVTQTPSHQVTQMGQEVILRCVPISNHLYFYWYRQILGQKVEFLVSFYNNEISEKSEIFDDQFSVERPDGSNFTLKIRSTKLEDSAMYFCASTPRDSYEQYFGPGTRLTVTE
B2: TCR 47 (codon optimized, cysteine modified version) (TCR, V domains shown)
V domain 1: QKEVEQNSGPLSVPEGAIASLNCTYSDRGSQSFFWYRQYSGKSPELIMFIYSNGDKEDGRFTAQLNKASQYVSLLIRDSQPSDSATYLCAVNLLSGSARQLTFGSGTQLTVLP
V domain 2: EPEVTQTPSHQVTQMGQEVILRCVPISNHLYFYWYRQILGQKVEFLVSFYNNEISEKSEIFDDQFSVERPDGSNFTLKIRSTKLEDSAMYFCAMTGRTTYEQYFGPGTRLTVTE
B3: TCR 40 (codon optimized, cysteine modified version) (TCR, V domains shown)
V domain 1: GQQVMQIPQYQHVQEGEDFTTYCNSSTTLSNIQWYKQRPGGHPVFLIQLVKSGEVKKQKRLTFQFGEAKKNSSLHITATQTTDVGTYFCAGRNNFNKFYFGSGTKLNVKP
V domain 2: EPEVTQTPSHQVTQMGQEVILRCVPISNHLYFYWYRQILGQKVEFLVSFYNNEISEKSEIFDDQFSVERPDGSNFTLKIRSTKLEDSAMYFCAITARSSYEQYFGPGTRLTVTE
B4: TCR 36 (codon optimized, cysteine modified version) (TCR, V domains shown)
V domain 1: RKEVEQDPGPFNVPEGATVAFNCTYSNSASQSFFWYRQDCRKEPKLLMSVYSSGNEDGRFTAQLNRASQYISLLIRDSKLSDSATYLCVVNRDNYGQNFVFGPGTRLSVLP
V domain 2: EPEVTQTPSHQVTQMGQEVILRCVPISNHLYFYWYRQILGQKVEFLVSFYNNEISEKSEIFDDQFSVERPDGSNFTLKIRSTKLEDSAMYFCAMTGRSNYEQYFGPGTRLTVTE
B5: TCR 49 (codon optimized, cysteine modified version) (TCR, V domains shown)
V domain 1: QKEVEQNSGPLSVPEGAIASLNCTYSDRGSQSFFWYRQYSGKSPELIMFIYSNGDKEDGRFTAQLNKASQYVSLLIRDSQPSDSATYLCAVNIGTSGTYKYIFGTGTRLKVLA
V domain 2: EPEVTQTPSHQVTQMGQEVILRCVPISNHLYFYWYRQILGQKVEFLVSFYNNEISEKSEIFDDQFSVERPDGSNFTLKIRSTKLEDSAMYFCASTPRYSYEQYFGPGTRLTVTE
B6: TCR 42 (codon optimized, cysteine modified version) (TCR, V domains shown)
V domain 1: GQQVMQIPQYQHVQEGEDFTTYCNSSTTLSNIQWYKQRPGGHPVFLIQLVKSGEVKKQKRLTFQFGEAKKNSSLHITATQTTDVGTYFCAGPDNFNKFYFGSGTKLNVKP
V domain 2: EPEVTQTPSHQVTQMGQEVILRCVPISNHLYFYWYRQILGQKVEFLVSFYNNEISEKSEIFDDQFSVERPDGSNFTLKIRSTKLEDSAMYFCAKTSRSSYEQYFGPGTRLTVTE
B7: TCR 33 (codon optimized, cysteine modified version) (TCR, V domains shown)
V domain 1: QKEVEQNSGPLSVPEGAIASLNCTYSDRGSQSFFWYRQYSGKSPELIMFIYSNGDKEDGRFTAQLNKASQYVSLLIRDSQPSDSATYLCAVNAHHTGGFKTIFGAGTRLFVKA
V domain 2: EPEVTQTPSHQVTQMGQEVILRCVPISNHLYFYWYRQILGQKVEFLVSFYNNEISEKSEIFDDQFSVERPDGSNFTLKIRSTKLEDSAMYFCASTPRDTYEQYFGPGTRLTVTE
B8: TCR 32 (codon optimized, cysteine modified version) (TCR, V domains shown)
V domain 1: TQLLEQSPQFLSIQEGENLTVYCNSSSVFSSLQWYRQEPGEGPVLLVTVVTGGEVKKLKRLTFQFGDARKDSSLHITAAQPGDTGLYLCAGGSNYKLTFGKGTLLTVNP
V domain 2: DSGVTQTPKHLITATGQRVTLRCSPRSGDLSVYWYQQSLDQGLQFLIQYYNGEERAKGNILERFSAQQFPDLHSELNLSSLELGDSALYFCASSVGGDHSDEQFFGPGTRLTVLE
B9: TCR 35 (codon optimized, cysteine modified version) (TCR, V domains shown)
V domain 1: KDQVFQPSTVASSEGAVVEIFCNHSVSNAYNFFWYLHFPGCAPRLLVKGSKPSQQGRYNMTYERFSSSLLILQVREADAAVYYCAVAGDYKLSFGAGTTVTVRA
V domain 2: DSGVTQTPKHLITATGQRVTLRCSPRSGDLSVYWYQQSLDQGLQFLIQYYNGEERAKGNILERFSAQQFPDLHSELNLSSLELGDSALYFCASTTSGDSSYNEQFFGPGTRLTVLE
B10: TCR 37 (codon optimized, cysteine modified version) (TCR, V domains shown)
V domain 1: ELKVEQNPLFLSMQEGKNYTIYCNYSTTSDRLYWYRQDPGKSLESLFVLLSNGAVKQEGRLMASLDTKARLSTLHITAAVHDLSATYFCAGYSGAGSYQLTFGKGTKLSVIP
V domain 2: GAGVSQSPRYKVAKRGQDVALRCDPISGHVSLFWYQQALGQGPEFLTYFQNEAQLDKSGLPSDRFFAERPEGSVSTLKIQRTQQEDSAVYLCASSLLLGAYGYTFGSGTRLTVVE
B11: TCR 31 (codon optimized, cysteine modified version) (TCR, V domains shown)
V domain 1: DQQVKQNSPSLSVQEGRISILNCDYTNSMFDYFLWYKKYPAEGPTFLISISSIKDKNEDGRFTVFLNKSAKHLSLHIVPSQPGDSAVYFCAASERGTYKYIFGTGTRLKVLA
V domain 2: GAGVSQSPSNKVTEKGKDVELRCDPISGHTALYWYRQSLGQGLEFLIYFQGNSAPDKSGLPSDRFSAERTGGSVSTLTIQRTQQEDSAVYLCASSRFLGSTDTQYFGPGTRLTVLE
B12: TCR 45 (codon optimized, cysteine modified version) (TCR, V domains shown)
V domain 1: GQQVMQIPQYQHVQEGEDFTTYCNSSTTLSNIQWYKQRPGGHPVFLIQLVKSGEVKKQKRLTFQFGEAKKNSSLHITATQTTDVGTYFCAGSSGAGSYQLTFGKGTKLSVIP
V domain 2: GAGVSQSPSNKVTEKGKDVELRCDPISGHTALYWYRQRLGQGLEFLIYFQGNSAPDKSGLPSDRFSAERTGESVSTLTIQRTQQEDSAVYLCASSLYLGTTGELFFGEGSRLTVLE
B13: TCR 41 (codon optimized, cysteine modified version) (TCR, V domains shown)
V domain 1: RKEVEQDPGPFNVPEGATVAFNCTYSNSASQSFFWYRQDCRKEPKLLMSVYSSGNEDGRFTAQLNRASQYISLLIRDSKLSDSATYLCVVTFALTGGFKTIFGAGTRLFVKA
V domain 2: EPEVTQTPSHQVTQMGQEVILRCVPISNHLYFYWYRQILGQKVEFLVSFYNNEISEKSEIFDDQFSVERPDGSNFTLKIRSTKLEDSAMYFCASNPRDRVSYEQYFGPGTRLTVTE
B14: TCR 39 (codon optimized, cysteine modified version) (TCR, V domains shown)
V domain 1: GQQLNQSPQSMFIQEGEDVSMNCTSSSIFNTWLWYKQEPGEGPVLLIALYKAGELTSNGRLTAQFGITRKDSFLNISASIPSDVGIYFCAGYSSSNDYKLSFGAGTTVTVRA
V domain 2: EPEVTQTPSHQVTQMGQEVILRCVPISNHLYFYWYRQILGQKVEFLVSFYNNEISEKSEIFDDQFSVERPDGSNFTLKIRSTKLEDSAMYFCASTPRDRGKEAFFGQGTRLTVVE
B15: TCR 46 (codon optimized, cysteine modified version) (TCR, V domains shown)
V domain 1: AQSVTQLDSQVPVFEEAPVELRCNYSSSVSVYLFWYVQYPNQGLQLLLKYLSGSTLVKGINGFEAEFNKSQTSFHLRKPSVHISDTAEYFCAVSPSSGTYKYIFGTGTRLKVLA
V domain 2: GAGVSQTPSNKVTEKGKYVELRCDPISGHTALYWYRQSLGQGPEFLIYFQGTGAADDSGLPNDRFFAVRPEGSVSTLKIQRTERGDSAVYLCASSLYLGGSETQYFGPGTRLLVLE
B16: TCR 44 (codon optimized, cysteine modified version) (TCR, V domains shown)
V domain 1: GQNIDQPTEMTATEGAIVQINCTYQTSGFNGLFWYQQHAGEAPTFLSYNVLDGLEEKGRFSSFLSRSKGYSYLLLKELQMKDSASYLCAQYSGGYQKVTFGTGTKLQVIP
V domain 2: DSGVTQTPKHLITATGQRVTLRCSPRSGDLSVYWYQQSLDQGLQFLIQYYNGEERAKGNILERFSAQQFPDLHSELNLSSLELGDSALYFCASSGTPDTQYFGPGTRLTVLE
B17: TCR 34 (codon optimized, cysteine modified version) (TCR, V domains shown)
V domain 1: ELKVEQNPLFLSMQEGKNYTIYCNYSTTSDRLYWYRQDPGKSLESLFVLLSNGAVKQEGRLMASLDTKARLSTLHITAAVHDLSATYFCAVSGTYKYIFGTGTRLKVLA
V domain 2: ETGVTQSPTHLIKTRGQQVTLRCSSQSGHNTVSWYQQALGQGPQFIFQYYREEENGRGNFPPRFSGLQFPNYSSELNVNALELDDSALYLCASSSYAGSYEQYFGPGTRLTVTE

target: T1, HLA-A2/E7 (11-19) tetramer (human; HPV 16); experiment: tetramer flow cytometry; transfected 1:1 CD4+ and CD4+/CD8+ Jurkat-derived cells;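 note: cells transiently transfected with TCR plasmids, stained 48 h later with HLA-A*02:01 peptide-MHC tetramer plus anti-CD8 antibody, read by flow cytometry to assess CD8-independent tetramer binding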
T1 construct: also called E7(11-19) peptide-MHC tetramer; E7 (11-19)-loaded tetramer
Description: For transfection, the CD4+ and CD4+/CD8+ cell mixtures were transiently transfected with TCR-encoding plasmids and 48 hours after transfection, cells were assessed by flow cytometry for (1) binding of the target peptide in the context of an MHC molecule (HLA:A02:01) by staining with an E6(29-38) peptide- or an E7(11-19) peptide-MHC tetramer reagent, and/or (2) CD8+ independent binding of the target by co-staining the tetramer-labeled cells with an anti-CD8 antibody.

Compared with B1, B2 is lower in “% cells in E7 tet+/CD8+ quadrant” value: 3.82% for the first, 1.98% for the second.

Compared with B3, B4 is higher in “% cells in E7 tet+/CD8+ quadrant” value: 7.84% for the first, 23.4% for the second.

Compared with B5, B6 is lower in “% cells in E7 tet+/CD8+ quadrant” value: 5.54% for the first, 1.21% for the second.

Compared with B7, B8 is higher in “% cells in E7 tet+/CD8+ quadrant” value: 22.6% for the first, 25.3% for the second.

First: B9
Second: B10
The “% cells in E7 tet+/CD8+ quadrant” value of the first is lower: 14.5% for the first, 25.5% for the second.

Going from B11 to B12, the “% cells in E7 tet+/CD8+ quadrant” value rises from 4.52% to 22.4%.

Compared with B13, B14 is higher in “% cells in E7 tet+/CD8+ quadrant” value: 6.07% for the first, 12.3% for the second.

Going from B15 to B16, the “% cells in E7 tet+/CD8+ quadrant” value rises from 1.27% to 2.96%.

In the case of B17, the “% cells in E7 tet+/CD8+ quadrant” value is reported as 26.3%.

First: B1
Second: B2
The “% cells in E7 tet+/CD8- quadrant” value of the first is higher: 1.88% for the first, 0.71% for the second.

Going from B3 to B4, the “% cells in E7 tet+/CD8- quadrant” value rises from 1.37% to 16.7%.

Compared with B5, B6 is lower in “% cells in E7 tet+/CD8- quadrant” value: 3.06% for the first, 1.65% for the second.

Compared with B7, B8 is higher in “% cells in E7 tet+/CD8- quadrant” value: 14% for the first, 33.5% for the second.

First: B9
Second: B10
The “% cells in E7 tet+/CD8- quadrant” value of the first is lower: 7.18% for the first, 19.5% for the second.

Going from B11 to B12, the “% cells in E7 tet+/CD8- quadrant” value rises from 0.042% to 16.9%.

Compared with B13, B14 is higher in “% cells in E7 tet+/CD8- quadrant” value: 2.41% for the first, 2.61% for the second.

First: B15
Second: B16
The “% cells in E7 tet+/CD8- quadrant” value of the first is lower: 1.21% for the first, 1.43% for the second.

B17 was tested, and the “% cells in E7 tet+/CD8- quadrant” value was 26%.

Compared with B1, B2 is higher in “% cells in E7 tet-/CD8+ quadrant” value: 37.6% for the first, 40.6% for the second.

Going from B3 to B4, the “% cells in E7 tet-/CD8+ quadrant” value falls from 42.4% to 25.4%.

Compared with B5, B6 is higher in “% cells in E7 tet-/CD8+ quadrant” value: 27.2% for the first, 39.5% for the second.

First: B7
Second: B8
The “% cells in E7 tet-/CD8+ quadrant” value of the first is higher: 12.8% for the first, 7.53% for the second.

First: B9
Second: B10
The “% cells in E7 tet-/CD8+ quadrant” value of the first is higher: 35.1% for the first, 22.7% for the second.

First: B11
Second: B12
The “% cells in E7 tet-/CD8+ quadrant” value of the first is higher: 21.1% for the first, 19.5% for the second.

Going from B13 to B14, the “% cells in E7 tet-/CD8+ quadrant” value falls from 43.6% to 37%.

Going from B15 to B16, the “% cells in E7 tet-/CD8+ quadrant” value rises from 38.9% to 39.9%.

With B17 the “% cells in E7 tet-/CD8+ quadrant” value was 6.85%.

B1 and B2 are the same in “% cells in E7 tet-/CD8- quadrant” value: 56.7% for the first, 56.7% for the second.

First: B3
Second: B4
The “% cells in E7 tet-/CD8- quadrant” value of the first is higher: 48.4% for the first, 34.5% for the second.

First: B5
Second: B6
The “% cells in E7 tet-/CD8- quadrant” value of the first is higher: 64.3% for the first, 57.4% for the second.

First: B7
Second: B8
The “% cells in E7 tet-/CD8- quadrant” value of the first is higher: 50.6% for the first, 33.7% for the second.

First: B9
Second: B10
The “% cells in E7 tet-/CD8- quadrant” value of the first is higher: 43.2% for the first, 32.2% for the second.

First: B11
Second: B12
The “% cells in E7 tet-/CD8- quadrant” value of the first is higher: 74.3% for the first, 41.3% for the second.

Going from B13 to B14, the “% cells in E7 tet-/CD8- quadrant” value rises from 47.9% to 48%.

Compared with B15, B16 is lower in “% cells in E7 tet-/CD8- quadrant” value: 58.6% for the first, 55.7% for the second.

With B17 the “% cells in E7 tet-/CD8- quadrant” value was 40.9%.
